The source of these data is publication PMC7498065, “Isolation of antigen-specific, disulphide-rich knob domain peptides from bovine antibodies” (PLoS Biology, 2020).

Where two headings read alike, the source gives them in different places. Some results are limits rather than exact numbers.

Experiment [1] addresses Complement component C5 (Homo sapiens, UniProt P01031). As to the kind of experiment: Biacore SPR single-cycle kinetics of PGT121 Fab-knob domain fusion proteins binding to C5. The note with it: for Mean kon: C5 amine-coupled on CM5 chip, analyte 1.37 nM-1 µM in HBS-EP; for Mean Stoichiometric ratio at 1 µM: SPR, analyte 1 µM. As for the experimental part:
For PGT121 fusion proteins, flow cells were activated using a minimal immobilisation protocol: EDC/NHS was mixed at 1:2 ratio (flow rate, 10 μL/min; contact time, 30 s). C5, at 1 μg/mL in pH 4.5 sodium-acetate buffer, was immobilized on flow cell 2 only (flow rate, 10 μL/min; contact time, 420 s). Finally, ethanolamine was applied to both flow cells (flow rate, 10 μL/min; contact time, 420 s).
For knob domain peptides, flow cells were activated using a standard immobilisation protocol: EDC/NHS was mixed at 1:1 ratio (flow rate, 10 μL/min; contact time, 30 s). C5, at 1 μg/mL in pH 4.5 sodium-acetate buffer, was immobilized on flow cell 2 only (flow rate, 10 μL/min; contact time, 420 s). Finally, ethanolamine was applied to both flow cells (flow rate, 10 μL/min; contact time, 420 s). […] For the PGT121-K149 fusion protein and K149 knob domain, the same immobilisation protocols were used but with a 750 ng/mL solution of C5, instead of 1 μg/mL.
One-micromolar stock solutions of the analytes (PGT121 knob domain fusion proteins and free knob domain peptides) were prepared in HBS-EP buffer. A series of six 3-fold dilutions of each stock solution was prepared in the same buffer. The result was 7 solutions for each analyte, at concentrations ranging from 1 μM down to 1.37 nM. A high flow rate of 40 μL/min was used, with a contact time of 230 s and a dissociation time of 1,800 s for knob domain peptides and 10,000 s for PGT121 knob domain fusion proteins. For the PGT121-K149 fusion protein and K149 knob domain, the flow rate was further increased to 100 μL/min. Binding to the reference surface was subtracted, and the data were fitted to a single-site binding model using Biacore evaluation software. Data were inspected for evidence of mass transport limitation using the flow-rate–independent component of the mass transfer constant (tc).

Experiment [2] has as its target C5 (Homo sapiens, UniProt P01031). The experiment in a line: Steady state FRET binding assay, AF647-labelled PGT121 knob fusion proteins binding to C5-Tb (KD app). The note with it: C5-Tb 1 nM.
[3] abbreviates: 2 hour incubation, experiment n2, read-out: KD app.
The mark [4] stands for this setting: 2 hour incubation, experiment n3, read-out: KD app.
Setting [5] is: 2 hour incubation, geomean of n=3, read-out: Geomean KD app.
The mark [6] stands for this setting: 24 hour incubation, experiment n2, read-out: KD app.
Where [7] appears, read: 24 hour incubation, experiment n3, read-out: KD app.
[8] abbreviates: 24 hour incubation, geomean of n=3, read-out: Geomean KD app.

Chain of Complement component C5 (P01031 19-673 limits assumed): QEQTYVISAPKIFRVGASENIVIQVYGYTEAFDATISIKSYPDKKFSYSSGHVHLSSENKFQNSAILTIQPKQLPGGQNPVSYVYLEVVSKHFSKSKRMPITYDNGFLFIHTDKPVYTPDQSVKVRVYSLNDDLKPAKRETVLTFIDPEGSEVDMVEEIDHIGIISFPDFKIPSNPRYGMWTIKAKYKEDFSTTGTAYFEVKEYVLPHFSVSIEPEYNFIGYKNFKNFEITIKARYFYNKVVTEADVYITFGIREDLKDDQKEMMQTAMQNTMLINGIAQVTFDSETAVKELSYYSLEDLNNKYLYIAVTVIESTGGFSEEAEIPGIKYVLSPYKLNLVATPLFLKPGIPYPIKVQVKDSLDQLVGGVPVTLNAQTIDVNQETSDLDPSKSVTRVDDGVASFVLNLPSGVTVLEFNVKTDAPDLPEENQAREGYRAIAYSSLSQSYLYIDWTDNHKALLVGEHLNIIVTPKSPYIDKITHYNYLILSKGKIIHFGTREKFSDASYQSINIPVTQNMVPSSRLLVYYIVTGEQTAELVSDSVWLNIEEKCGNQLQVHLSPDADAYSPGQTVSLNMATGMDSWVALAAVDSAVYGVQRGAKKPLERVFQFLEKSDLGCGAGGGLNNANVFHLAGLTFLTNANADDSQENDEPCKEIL
Chain of Complement component C5 (P01031 678-1676 limits assumed): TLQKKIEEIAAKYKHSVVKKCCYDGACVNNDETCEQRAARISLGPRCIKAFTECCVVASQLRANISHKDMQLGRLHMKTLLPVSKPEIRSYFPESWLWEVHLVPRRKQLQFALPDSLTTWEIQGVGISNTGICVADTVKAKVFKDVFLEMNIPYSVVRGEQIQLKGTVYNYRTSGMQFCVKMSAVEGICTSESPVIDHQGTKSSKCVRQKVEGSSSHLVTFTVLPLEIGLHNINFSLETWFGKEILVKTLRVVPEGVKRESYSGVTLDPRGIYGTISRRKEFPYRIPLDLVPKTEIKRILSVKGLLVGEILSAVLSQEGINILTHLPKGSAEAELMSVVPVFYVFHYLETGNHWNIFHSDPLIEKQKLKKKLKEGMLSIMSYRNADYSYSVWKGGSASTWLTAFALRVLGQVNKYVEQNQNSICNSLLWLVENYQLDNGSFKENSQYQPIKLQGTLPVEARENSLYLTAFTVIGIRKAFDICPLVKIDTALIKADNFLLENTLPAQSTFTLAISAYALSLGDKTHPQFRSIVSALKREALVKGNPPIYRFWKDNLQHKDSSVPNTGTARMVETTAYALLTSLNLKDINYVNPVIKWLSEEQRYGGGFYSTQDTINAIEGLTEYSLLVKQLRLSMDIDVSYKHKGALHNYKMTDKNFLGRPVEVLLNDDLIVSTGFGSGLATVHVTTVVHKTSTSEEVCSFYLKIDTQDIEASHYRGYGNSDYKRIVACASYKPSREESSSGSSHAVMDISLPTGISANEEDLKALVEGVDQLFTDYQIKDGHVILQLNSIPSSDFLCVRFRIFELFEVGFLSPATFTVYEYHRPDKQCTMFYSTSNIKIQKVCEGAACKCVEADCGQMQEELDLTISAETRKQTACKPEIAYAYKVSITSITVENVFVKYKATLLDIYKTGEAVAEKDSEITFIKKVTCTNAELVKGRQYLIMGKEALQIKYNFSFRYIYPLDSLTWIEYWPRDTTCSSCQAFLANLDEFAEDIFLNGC
Chain of C5 (P01031 19-673 limits assumed): as the sequence (P01031 19-673 limits assumed) above
Chain of C5 (P01031 678-1676 limits assumed): as the sequence (P01031 678-1676 limits assumed) above

B1: PGT121-K136: human Fab PGT121 with the K136 knob domain inserted into CDRH3, flanked by TEV protease sites (antibody)
VH: QMQLQESGPGLVKPSETLSLTCSVSGASISDSYWSWIRRSPGKGLEWIGYVHKSGDTNYSPSLKSRVNLSLDTSKNQVSLSLVAATAADSGKYYCARTLHGRRIYGSENLYFQGTCPDNYREVDGCDPYDCCLTTWCTNSYCTRYIENLYFQGSEWFTYFYMDVWGNGTQVTVSS
VL: QSVLTQPPDISVAPGETARISCGEKSLGSRAVQWYQHRAGQAPSLIIYNNQDRPSGIPERFSGSPDSPFGTTATLTITSVEAGDEADYYCHIWDSRVPTKWVFGGGTTLTVL
Consider B1, for which the Mean kon in experiment [1] (1:1 model, mean of n=3) turned out to be 4760 M⁻¹ s⁻¹. In addition, the Kd in experiment [1] (SPR single-cycle kinetics, 1:1 model, mean of n=3, read-out: Mean KD) was < 2.19 nM; in experiment [1] (occasion n=1, read-out: KD), < 1.82 nM; in experiment [1] (occasion n=2, read-out: KD), < 2.84 nM; in experiment [1] (occasion n=3, read-out: KD), < 1.89 nM; in experiment [2] (setting [3]) it was 46.3 nM; in experiment [2] (setting [4]), 115 nM. For the same molecule, the Kd in experiment [2] (setting [5]) was 73 nM; in experiment [2] (setting [6]) it was 23.4 nM; in experiment [2] (setting [7]), 58.1 nM; in experiment [2] (setting [8]), 39.8 nM. Moreover, the “Mean Stoichiometric ratio at 1 µM” value in experiment [1] (mean of n=3) was found to be 0.8. For the same molecule, the “off rate (koff)” value in experiment [1] (exceeded the limit for koff determination by Biacore) is < 1e-05 s⁻¹. Further, the Rmax in experiment [1] (occasion n=1) came to 38.9 RU; in experiment [1] (occasion n=2), 38.4 RU; in experiment [1] (occasion n=3) it was 40.4 RU. The “Stoichiometric ratio at 1 µM” value in experiment [1] (occasion n=1) was 0.82; in experiment [1] (occasion n=2), 0.8; in experiment [1] (occasion n=3) it was 0.9. Also, the figures for the kon in experiment [1] (occasion n=1), in experiment [1] (occasion n=2) and in experiment [1] (occasion n=3) were 5480 M⁻¹ s⁻¹, 3520 M⁻¹ s⁻¹ and 5280 M⁻¹ s⁻¹, respectively.

B2: PGT121-K149: human Fab PGT121 with the K149 knob domain inserted into CDRH3, flanked by TEV protease sites (antibody)
VH: QMQLQESGPGLVKPSETLSLTCSVSGASISDSYWSWIRRSPGKGLEWIGYVHKSGDTNYSPSLKSRVNLSLDTSKNQVSLSLVAATAADSGKYYCARTLHGRRIYGSENLYFQGSCPDGFSYRSWDDFCCPMVGRCLAPRNGSENLYFQGSEWFTYFYMDVWGNGTQVTVSS
VL: B1 VL
Consider B2, for which, in experiment [1] (1:1 model, mean of n=3), the Mean kon is 3750 M⁻¹ s⁻¹. The molecule also came in with a Mean koff in experiment [1] (SPR single-cycle kinetics, 1:1 model, mean of n=3, koff capped at 1.00E-05 s^-1) of 0.00164 s⁻¹. Moreover, in experiment [1] (mean of n=3), the “Mean Stoichiometric ratio at 1 µM” value was found to be 0.5. In addition, the Rmax is on record as 13.00 RU in experiment [1] (occasion n=1), 10.00 RU in experiment [1] (occasion n=2) and 10.00 RU in experiment [1] (occasion n=3). Besides, the “Stoichiometric ratio at 1 µM” value came to 0.5 in experiment [1] (occasion n=1), 0.5 in experiment [1] (occasion n=2) and 0.4 in experiment [1] (occasion n=3). For the same molecule, the results for the koff in experiment [1] (occasion n=1), in experiment [1] (occasion n=2) and in experiment [1] (occasion n=3) were 0.00149 s⁻¹, 0.00162 s⁻¹ and 0.00181 s⁻¹, respectively. Further, the figures for the kon in experiment [1] (occasion n=1), in experiment [1] (occasion n=2) and in experiment [1] (occasion n=3) were 5270 M⁻¹ s⁻¹, 3840 M⁻¹ s⁻¹ and 2150 M⁻¹ s⁻¹, respectively. The Kd in experiment [1] (occasion n=1, read-out: KD) came to 283 nM; in experiment [1] (occasion n=2, read-out: KD) it was 425 nM; in experiment [1] (occasion n=3, read-out: KD), 842 nM; in experiment [2] (2 hour incubation, experiment n1, read-out: KD app), 34.9 nM; in experiment [2] (setting [3]) it was 57.6 nM; in experiment [2] (setting [4]), 30.1 nM. The Kd in experiment [2] (setting [5]) worked out at 39.3 nM; in experiment [2] (24 hour incubation, experiment n1, read-out: KD app), 127 nM; in experiment [2] (setting [6]) it was 90.6 nM; in experiment [2] (setting [7]), 24.9 nM; in experiment [2] (setting [8]), 65.9 nM.
